Positions count from the first letter of the chain named. Names and notes keep the numbering of the source.
B1: N70S: mutated TriA variant of SEQ ID NO: 2 (protein)
chain: MQTLSIQHGTLVTMDQYRRVLGDSWVHVQDGRIVALGVHAESVPPPADRVIDARGKVVLPGFINAHTHVSQILLRGGPSHGRQLYDWLFNVLYPGQKAMRPEDVAVAVRLYCAEAVRSGITTINDNADSAIYPGNIEAAMAVYGEVGVRVVYARMFFDRMDGRIQGYVDALKARSPQVELCSIMEETAVAKDRITALSDQYHGTAGGRISVWPAPAITPAVTVEGMRWAQAFARDRAVMWTLHMAESDHDERLHWMSPAEYMECYGLLDERLQVAHCVYFDRKDVRLLHRHNVKVASQVVSNAYLGSGVAPVPEMVERGMAVGIGTDDGNCNDSVNMIGDMKFMAHIHRAVHRDADVLTPEKILEMATIDGARSLGMDHEIGSIETGKRADLILLDLRHPQTTPHHHLAATIVFQAYGNEVDTVLIDGNVVMENRRLSFLPPERELAFLEEAQSRATAILQRANMVANPAWRSL
modifications: Pseudomonas
B2: Q71NL88AL92A: mutated TriA variant of SEQ ID NO: 2 (protein)
chain: B1 chain with S70N, Q71N, L88A, L92A
modifications: Pseudomonas
B3: Q71NL92AD128G: mutated TriA variant of SEQ ID NO: 2 (protein)
chain: B1 chain with S70N, Q71N, L92A, D128G
modifications: Pseudomonas
B4: Q71NL92AD128A: mutated TriA variant of SEQ ID NO: 2 (protein)
chain: B1 chain with S70N, Q71N, L92A, D128A
modifications: Pseudomonas
B5: Q71NL92AY93FD128G: mutated TriA variant of SEQ ID NO: 2 (protein)
chain: B1 chain with S70N, Q71N, L92A, Y93F, D128G
modifications: Pseudomonas
B6: Q71NL92AY93FD128A: mutated TriA variant of SEQ ID NO: 2 (protein)
chain: B1 chain with S70N, Q71N, L92A, Y93F, D128A
modifications: Pseudomonas
B7: Q71NL92AY93F: mutated TriA variant of SEQ ID NO: 2 (protein)
chain: B1 chain with S70N, Q71N, L92A, Y93F
modifications: Pseudomonas
B8: Q71NL92A: mutated TriA variant of SEQ ID NO: 2 (protein)
chain: B1 chain with S70N, Q71N, L92A
modifications: Pseudomonas
B9: F157S: mutated TriA variant of SEQ ID NO: 2 (protein)
chain: B1 chain with S70N, F157S
modifications: Pseudomonas
B10: Q71G: mutated TriA variant of SEQ ID NO: 2 (protein)
chain: B1 chain with S70N, Q71G
modifications: Pseudomonas
B11: Q71NL88AL92AY93L: mutated TriA variant of SEQ ID NO: 2 (protein)
chain: B1 chain with S70N, Q71N, L88A, L92A, Y93L
modifications: Pseudomonas
B12: Q71NL88AL92AD128A: mutated TriA variant of SEQ ID NO: 2 (protein)
chain: B1 chain with S70N, Q71N, L88A, L92A, D128A
modifications: Pseudomonas
B13: Q71NL88AL92AY93FF157L: mutated TriA variant of SEQ ID NO: 2 (protein)
chain: B1 chain with S70N, Q71N, L88A, L92A, Y93F, F157L
modifications: Pseudomonas
B14: Q71S: mutated TriA variant of SEQ ID NO: 2 (protein)
chain: B1 chain with S70N, Q71S
modifications: Pseudomonas
B15: Q71NL88AL92AD128G: mutated TriA variant of SEQ ID NO: 2 (protein)
chain: B1 chain with S70N, Q71N, L88A, L92A, D128G
modifications: Pseudomonas
B16: Q71V: mutated TriA variant of SEQ ID NO: 2 (protein)
chain: B1 chain with S70N, Q71V
modifications: Pseudomonas
B17: Q71NL92AY93FD128GQ96T: mutated TriA variant of SEQ ID NO: 2 (protein)
chain: B1 chain with S70N, Q71N, L92A, Y93F, Q96T, D128G
modifications: Pseudomonas
B18: Q71NL88AL92AY93LI217A: mutated TriA variant of SEQ ID NO: 2 (protein)
chain: B1 chain with S70N, Q71N, L88A, L92A, Y93L, I217A
modifications: Pseudomonas
B19: Q71NL92AY93L: mutated TriA variant of SEQ ID NO: 2 (protein)
chain: B1 chain with S70N, Q71N, L92A, Y93L
modifications: Pseudomonas
B20: Q71NL88AL92AY93F: mutated TriA variant of SEQ ID NO: 2 (protein)
chain: B1 chain with S70N, Q71N, L88A, L92A, Y93F
modifications: Pseudomonas

Format: biochemical
Settings: pH 7.2
Description: EXAMPLE 3: Protein Purification. TriA and variants thereof were produced in E. coli BL21(DE3) Gold (Agilent Technologies, Germany). Therefore E. coli was transformed with appropriate pET24d N-HIS tag expression vector and chaperone plasmid pGro7 (chaperones groEL and groES). Bacterial strains were grown at 30° C. in 100 mL LB for 20 h and protein expression induced with 0.1 mM IPTG at 25° C. for 20 hs. Cells were harvested by centrifugation at 3000 rpm at 4° C. for 20 min, resuspended in Bug Buster protein extraction reagent (Novagen, Germany) according to manufactures instructions. Lysates were clarified by centrifugation. Samples of bovine serum albumin ([…]) were loaded onto each gel analyzed by densitometry to provide an internal standard. Protein determinations were verified using Coomassie protein assay dye, according to manufactures instruction (Thermo Scientific; USA). The HIS-tagged enzymes were purified by metal ion affinity chromatography using Ni-IDA 1000 kit (Macherey-Nagel, Germany) following manufactures instructions. Protein purity was accessed by SDS-PAGE using NuPAGE Novex 4-12% Bis-Tris pre-cast gels (Life Technologies; USA) stained with Coomassie Brilliant Blue (Serva, Germany). Protein concentrations were estimated by measuring absorbance at 280 nm using Lambda Bio+(Perkin Elmer, USA). EXAMPLE 4: Enzyme kinetics. Resting cell suspension containing triA gene were incubated with various azines, melamine and atrazine and the culture filtrate was analyzed by UPLC-HR-MS. Substrates were obtained either from Sigma-Aldrich or synthesized internally. Synthetic standards and enzyme reaction products were analysed by UPLC-HR-MS (Thermo/Dionex UPLC UltiMate3000 coupled to a QExactive high resolution mass spectrometer). A Waters Acquity HSS T3 column (2.1 mm; 100 mm; […]) was used with a mobile phase water/acetonitrile (0.1% formic acid) with a flow rate of […]. Enzymes were used solved 25 mM sodium phosphate buffer (pH 7.2) with substrate concentration in the range of 1 nM to 10 nM at 30° C. Over time, the original azine peak disappeared whereas the formed OH-Metabolite (reaction product) increased. The product was identified by determination of the exact formula and by analysis of the accurate MS-MS fragments. Moreover for some of the formed products authentic standards were co-eluted. Degradation in % was calculated against the cells harboring the empty vector as control.

Molecule | Degradation in % of 6-cyclopentyl-N4-(2,3,4,5,6-pentafluorophenyl)-1,3,5-triazine-2,4-diamine | Degradation in % of Melamine
B1 | 0% | 0%
B2 | 64% | 40%
B3 | 61% | 0%
B4 | 98% | 0%
B5 | 74% | 0%
B6 | 98% | 0%
B7 | 100% | 78%
B8 | 99% | 87%
B9 | 0% | 10%
B10 | 0% | 19%
B11 | 99% | 4%
B12 | 4% | 0%
B13 | 91% | 1%
B14 | 0% | 43%
B15 | 31% | 0%
B16 | 0% | 0%
B17 | 99% | 1%
B18 | 99% | 12%
B19 | 100% | 99%
B20 | 92% | 5%
